Drawing on patent US20090054362, this text covers IC50 and Kd for 2 sequences.

Data set [1] addresses HIV-1 Ba-L virus (envelope gp120) (HIV-1 Ba-L) (UniProt P03375). Description: cell_activity. The following applies: 2'-F C and U; neutralization in human PBMCs, p24 ELISA. (In general: ELISA stands for enzyme-linked immunosorbent assay.)
In data set [2] the target is gp120 (SU envelope glycoprotein) (HIV-1 Ba-L) (UniProt P03375). As to the kind of experiment: EMSA. The following applies: 2'-F C and U, tRNA, room temp, also dose-dependent SPR. (A gel shift assay detects complexes by their altered migration in electrophoresis.)

pIC50, pKd: −log10 of the molar value.

“GGGAGACAAGACUAGACGCUCAAUGUGGGCCACGCCCGAUUUUACGCUUUUACCCGCACGCGAUUGGUUUGUUUCCC [B40t77]” gave a pIC50 in data set [1] of 8.70. The sequence further showed a pKd in data set [2] (1x cHBS) of 7.51.
As to “GGGAGACAAGACUAGACGCUCAAUGUGGGCCACGCCCGAUUUUACGCUUUUACCCGCACGCGAUUGGUUUGUUUUCGACAUGAGACUCACAACAGUUCCCUUUAGUGAGGGUUAAUU [B40]”, in data set [1], the pIC50 was 8.70. This sequence also showed a pKd in data set [2] (1x cHBS (10 mM HEPES pH 7.4, 150 mM NaCl, 1 mM CaCl2, 1 mM MgCl2, 2.7 mM KCl)) of 7.68.

By pIC50 is commonly meant the negative decadic logarithm of the IC50, by convention in mol/L. Read a high pIC50 as a small IC50. For orientation: pKd means the negative decadic logarithm of the Kd, by convention in mol/L.
